Measurements as given in article PMC8760232, “Is reduced ferredoxin the physiological electron donor for MetVF-type methylenetetrahydrofolate reductases in acetogenesis? A hypothesis” (International Microbiology, 2021).

How the values were obtained:
[1] = target: MetVF heterodimer of the methylene-tetrahydrofolate reductase (MTHFR) from Clostridium ljungdahlii (Clostridium ljungdahlii (endogenous in C. ljungdahlii)); test: SEC; analytical gel filtration of the purified MTHFR on Superdex 200 Increase, column calibrated with high- and low-molecular weight kits; dimer of MetVF heterodimers
purified protein = substrate: Nc1nc2c(c(=O)[nH]1)N1CN(c3ccc(C(=O)N[C@@H](CCC(=O)O)C(=O)O)cc3)C[C@H]1CN2; test: purified protein; format: biochemical, Clostridium ljungdahlii; conditions: reduced ferredoxin as electron donor, 50 mM NaPi, 2 mM DTE, pH 7, 37 °C, methylene-THF made from formaldehyde and THF

Row | Molecule | stoichiometry N [1] | K0.5 (purified protein)
1 | MetVF heterodimer of the methylene-tetrahydrofolate reductase (MTHFR) from Clostridium ljungdahlii (complex) | 2 | –
2 | MetVF-type methylene-THF reductase (MTHFR) of C. ljungdahlii (Clostridium ljungdahlii DSM 13528) (protein, native enzyme purified from C. ljungdahlii cytoplasm, untagged; (MetVF)2 dimer of heterodimers, ~106 kDa native; MetF 33-35 kDa, MetV 23 kDa; FMN and 4Fe-4S clusters; with Methylene-tetrahydrofolate reductase C-terminal-like domain-containing protein) MSLLKEAFEKGEFAITAEMAPPKGTDLSHLIECAKKIKGRVQGVNVTDFQSATLKATSLATCKVLKDAGLEPVFQITGRDRNRIAIQGELLSAGVFEIENVLALTGDYTATGDHPGAKPVYDLDSVGILQVASILNGGKDMGGTDLKGKPDFFLGACVTPRYDPLELQVIKMKKKIKAGAKFFQTQAVYDMETLKKFKEETKAQGVDAKVMVGIIPLKSAGMAKYMNKNVPGIFVPDELIDRMKNAEDKVQEGIKIAGEFIKAVKESGLCDGVHIMAIGAEENVPLILDEAGL | – | 70 µM
